Experimental data published in the supplement of paper PMC10065799, “High-throughput profiling of sequence recognition by tyrosine kinases and SH2 domains using bacterial peptide display” (eLife, 2023).

molecular target: Fes (UniProt P07332); test: phosphorylation enrichment, bacterial display (enrichment ratio); higher = better substrate or ligand; peptides without Tyr show the background
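Also: 11-residue human phosphosite peptides and single-mutation variants displayed on the E. coli surface, counted by deep sequencing, each peptide's frequency after selection divided by its frequency in the unselected input library; frequency after pTyr selection over input frequency; kinase dosed for 20-30% of maximal phosphorylation in three min.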

Fes, sequence (P07332 whole entry, looked up): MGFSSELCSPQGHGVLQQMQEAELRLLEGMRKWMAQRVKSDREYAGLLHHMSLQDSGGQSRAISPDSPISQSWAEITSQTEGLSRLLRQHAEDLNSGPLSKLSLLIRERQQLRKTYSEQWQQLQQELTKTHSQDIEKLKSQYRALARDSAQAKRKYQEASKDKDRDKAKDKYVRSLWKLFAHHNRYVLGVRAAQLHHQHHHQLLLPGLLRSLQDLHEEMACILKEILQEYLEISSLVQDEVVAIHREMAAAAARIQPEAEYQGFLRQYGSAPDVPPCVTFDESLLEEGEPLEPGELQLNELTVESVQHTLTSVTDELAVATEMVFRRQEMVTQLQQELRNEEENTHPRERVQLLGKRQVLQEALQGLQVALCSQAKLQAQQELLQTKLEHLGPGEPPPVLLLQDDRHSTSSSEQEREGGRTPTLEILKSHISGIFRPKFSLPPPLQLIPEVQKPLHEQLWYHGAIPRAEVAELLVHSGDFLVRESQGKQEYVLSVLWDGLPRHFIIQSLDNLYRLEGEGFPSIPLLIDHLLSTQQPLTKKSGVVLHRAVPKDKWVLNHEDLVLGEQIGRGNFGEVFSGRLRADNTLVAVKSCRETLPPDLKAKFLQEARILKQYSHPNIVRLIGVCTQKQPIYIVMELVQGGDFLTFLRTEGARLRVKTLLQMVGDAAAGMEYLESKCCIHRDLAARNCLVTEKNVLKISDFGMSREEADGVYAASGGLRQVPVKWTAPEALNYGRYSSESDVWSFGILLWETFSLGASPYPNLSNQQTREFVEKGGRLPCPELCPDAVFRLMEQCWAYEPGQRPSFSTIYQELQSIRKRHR

| Sequence | phosphorylation enrichment |
| --- | --- |
| NTDETYCIDNK [TUBB3_Y200_E205K] | 1.34 |
| IYLGAYDRFLP [SLC22A5_Y486_V481I] | 1.18 |
| GTSLIYWILFT [G6PC3_Y214_T216I] | 1.56 |
| MHDSNSVSKGS [PDGFRA_Y849_Y849S] | 0.523 |
| KWRGQYDVAIK [BTK_Y425] | 0.742 |
| VPTSKYRGGGG [HBA1_Y141_L137P] | 0.457 |
| ADAHHYLCKEV [JAK2_Y382] | 0.879 |
| YSPCDYQPCLA [TNS1_Y798_Y796C] | 0.966 |
| LFFFSYLLKNH [PTEN_Y180_V175L_YF] | 1.98 |
| CTTIHYNYMRN [TP53_Y234_C238R] | 0.858 |
| GHLFAYNWISI [BEST1_Y227_D228N_YF] | 1.06 |
| LRRFIYRPPDQ [OTOF_Y1231_R1236Q] | 0.606 |
| KRAIGHYSATS [FAM120A_Y327_Y327H] | 0.498 |
| CTTIHYNFRCN [TP53_Y234_M237R_YF] | 0.804 |
| CATIHYNYMCN [TP53_Y234_T230A] | 0.896 |
| RNNIEYVRDIG [MUSK_Y577] | 0.693 |
| MARDISRASYY [ALK_Y1278_Y1278S] | 0.73 |

| Sequence | phosphorylation enrichment |
| --- | --- |
| HEKRAYICAHP [ACAD9_Y611_L606H] | 0.77 |
| LADKPYTFEDY [FXN_Y118] | 1.74 |
| LLASRYDSPIN [ABLIM1_Y638] | 1.65 |
| RLDPVYFVAPA [LAMC2_Y250] | 0.787 |
| IGEGTYRQVYK [CDK13_Y716_G717R] | 0.546 |
| EQLQSYQVEII [KRT33A_Y268_A270V] | 1.21 |
| FKIFLYTLNDN [FN1_Y1975_YF] | 1.35 |
| DENWFYTRAAF [RPS19_Y54_S59F] | 1.32 |
| VRFMAYTDEIF [F8_Y450_T454I] | 1.21 |
| AQPHTYEEPGR [EPHA8_Y616_E612Q] | 0.729 |
| TSPALYRLDLD [TRIL_Y352_A347T] | 1.24 |
| NTTIHYNFMCN [TP53_Y234_C229N_YF] | 1.24 |
| GTATAYLCGVK [ALPL_Y117] | 1.07 |
| QKMADYSNKLF [PDPR_Y104_YF] | 1.41 |
| HDEPTYARSSK [PEAK1_Y616] | 1.03 |
| IGRWVYPLTPE [EIF2B5_Y319_R315G] | 1.02 |

system: AncSZ; test: as above

| Sequence | phosphorylation enrichment |
| --- | --- |
| NTDETYCIDNK [TUBB3_Y200_E205K] | 1.23 |
| IYLGAYDRFLP [SLC22A5_Y486_V481I] | 1.72 |
| GTSLIYWILFT [G6PC3_Y214_T216I] | 1.18 |
| MHDSNSVSKGS [PDGFRA_Y849_Y849S] | 0.445 |
| KWRGQYDVAIK [BTK_Y425] | 0.676 |
| VPTSKYRGGGG [HBA1_Y141_L137P] | 0.392 |
| ADAHHYLCKEV [JAK2_Y382] | 0.678 |
| YSPCDYQPCLA [TNS1_Y798_Y796C] | 2.78 |
| LFFFSYLLKNH [PTEN_Y180_V175L_YF] | 1.39 |
| CTTIHYNYMRN [TP53_Y234_C238R] | 0.805 |
| GHLFAYNWISI [BEST1_Y227_D228N_YF] | 0.962 |
| LRRFIYRPPDQ [OTOF_Y1231_R1236Q] | 0.675 |
| KRAIGHYSATS [FAM120A_Y327_Y327H] | 0.459 |
| CTTIHYNFRCN [TP53_Y234_M237R_YF] | 0.763 |
| CATIHYNYMCN [TP53_Y234_T230A] | 0.78 |
| RNNIEYVRDIG [MUSK_Y577] | 0.676 |
| MARDISRASYY [ALK_Y1278_Y1278S] | 0.525 |

| Sequence | phosphorylation enrichment |
| --- | --- |
| HEKRAYICAHP [ACAD9_Y611_L606H] | 0.742 |
| LADKPYTFEDY [FXN_Y118] | 2.03 |
| LLASRYDSPIN [ABLIM1_Y638] | 1.32 |
| RLDPVYFVAPA [LAMC2_Y250] | 1.46 |
| IGEGTYRQVYK [CDK13_Y716_G717R] | 0.492 |
| EQLQSYQVEII [KRT33A_Y268_A270V] | 1.14 |
| FKIFLYTLNDN [FN1_Y1975_YF] | 1.3 |
| DENWFYTRAAF [RPS19_Y54_S59F] | 1.25 |
| VRFMAYTDEIF [F8_Y450_T454I] | 1.21 |
| AQPHTYEEPGR [EPHA8_Y616_E612Q] | 0.74 |
| TSPALYRLDLD [TRIL_Y352_A347T] | 0.943 |
| NTTIHYNFMCN [TP53_Y234_C229N_YF] | 1.14 |
| GTATAYLCGVK [ALPL_Y117] | 0.756 |
| QKMADYSNKLF [PDPR_Y104_YF] | 1.16 |
| HDEPTYARSSK [PEAK1_Y616] | 0.785 |
| IGRWVYPLTPE [EIF2B5_Y319_R315G] | 1.33 |

molecular target: MERTK (UniProt Q12866); test: as above
Sequence (Q12866 whole entry, looked up): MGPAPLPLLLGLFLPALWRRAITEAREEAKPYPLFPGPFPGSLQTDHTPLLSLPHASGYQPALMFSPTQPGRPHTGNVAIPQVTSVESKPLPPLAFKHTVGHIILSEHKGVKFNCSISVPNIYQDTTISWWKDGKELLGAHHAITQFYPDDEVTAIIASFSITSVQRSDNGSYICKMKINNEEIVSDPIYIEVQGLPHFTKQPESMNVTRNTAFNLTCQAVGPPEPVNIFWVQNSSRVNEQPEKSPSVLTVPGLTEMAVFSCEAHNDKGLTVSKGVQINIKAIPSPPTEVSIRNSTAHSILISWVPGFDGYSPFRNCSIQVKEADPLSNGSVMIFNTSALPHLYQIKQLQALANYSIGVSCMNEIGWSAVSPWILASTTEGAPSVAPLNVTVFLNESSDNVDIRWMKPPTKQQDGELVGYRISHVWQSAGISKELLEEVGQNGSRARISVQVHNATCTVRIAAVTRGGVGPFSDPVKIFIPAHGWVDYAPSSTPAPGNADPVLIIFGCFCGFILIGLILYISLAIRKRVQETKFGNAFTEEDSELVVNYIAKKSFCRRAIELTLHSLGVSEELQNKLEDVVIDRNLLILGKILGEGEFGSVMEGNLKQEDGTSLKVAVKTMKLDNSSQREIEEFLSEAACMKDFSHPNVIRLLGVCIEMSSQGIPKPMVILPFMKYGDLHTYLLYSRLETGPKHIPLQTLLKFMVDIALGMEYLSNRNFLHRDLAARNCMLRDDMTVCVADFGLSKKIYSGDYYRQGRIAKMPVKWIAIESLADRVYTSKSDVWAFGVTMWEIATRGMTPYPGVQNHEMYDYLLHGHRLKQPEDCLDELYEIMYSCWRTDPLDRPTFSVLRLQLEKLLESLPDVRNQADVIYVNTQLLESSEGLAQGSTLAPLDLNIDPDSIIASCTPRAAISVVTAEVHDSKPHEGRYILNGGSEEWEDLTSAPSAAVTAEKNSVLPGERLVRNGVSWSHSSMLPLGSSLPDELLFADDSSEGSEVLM

| Sequence | phosphorylation enrichment |
| --- | --- |
| NTDETYCIDNK [TUBB3_Y200_E205K] | 0.407 |
| IYLGAYDRFLP [SLC22A5_Y486_V481I] | 6.6 |
| GTSLIYWILFT [G6PC3_Y214_T216I] | 1.46 |
| MHDSNSVSKGS [PDGFRA_Y849_Y849S] | 0.448 |
| KWRGQYDVAIK [BTK_Y425] | 0.463 |
| VPTSKYRGGGG [HBA1_Y141_L137P] | 0.392 |
| ADAHHYLCKEV [JAK2_Y382] | 0.429 |
| YSPCDYQPCLA [TNS1_Y798_Y796C] | 3.24 |
| LFFFSYLLKNH [PTEN_Y180_V175L_YF] | 0.584 |
| CTTIHYNYMRN [TP53_Y234_C238R] | 0.468 |
| GHLFAYNWISI [BEST1_Y227_D228N_YF] | 0.548 |
| LRRFIYRPPDQ [OTOF_Y1231_R1236Q] | 0.516 |
| KRAIGHYSATS [FAM120A_Y327_Y327H] | 0.355 |
| CTTIHYNFRCN [TP53_Y234_M237R_YF] | 0.386 |
| CATIHYNYMCN [TP53_Y234_T230A] | 0.435 |
| RNNIEYVRDIG [MUSK_Y577] | 0.3 |
| MARDISRASYY [ALK_Y1278_Y1278S] | 0.453 |

| Sequence | phosphorylation enrichment |
| --- | --- |
| HEKRAYICAHP [ACAD9_Y611_L606H] | 0.439 |
| LADKPYTFEDY [FXN_Y118] | 2.31 |
| LLASRYDSPIN [ABLIM1_Y638] | 1.09 |
| RLDPVYFVAPA [LAMC2_Y250] | 5.95 |
| IGEGTYRQVYK [CDK13_Y716_G717R] | 0.319 |
| EQLQSYQVEII [KRT33A_Y268_A270V] | 0.513 |
| FKIFLYTLNDN [FN1_Y1975_YF] | 0.366 |
| DENWFYTRAAF [RPS19_Y54_S59F] | 0.55 |
| VRFMAYTDEIF [F8_Y450_T454I] | 0.697 |
| AQPHTYEEPGR [EPHA8_Y616_E612Q] | 0.394 |
| TSPALYRLDLD [TRIL_Y352_A347T] | 0.395 |
| NTTIHYNFMCN [TP53_Y234_C229N_YF] | 0.427 |
| GTATAYLCGVK [ALPL_Y117] | 0.352 |
| QKMADYSNKLF [PDPR_Y104_YF] | 0.788 |
| HDEPTYARSSK [PEAK1_Y616] | 0.679 |
| IGRWVYPLTPE [EIF2B5_Y319_R315G] | 0.551 |

molecular target: FGFR3 (UniProt P22607); test: as above
Sequence (P22607 whole entry, looked up): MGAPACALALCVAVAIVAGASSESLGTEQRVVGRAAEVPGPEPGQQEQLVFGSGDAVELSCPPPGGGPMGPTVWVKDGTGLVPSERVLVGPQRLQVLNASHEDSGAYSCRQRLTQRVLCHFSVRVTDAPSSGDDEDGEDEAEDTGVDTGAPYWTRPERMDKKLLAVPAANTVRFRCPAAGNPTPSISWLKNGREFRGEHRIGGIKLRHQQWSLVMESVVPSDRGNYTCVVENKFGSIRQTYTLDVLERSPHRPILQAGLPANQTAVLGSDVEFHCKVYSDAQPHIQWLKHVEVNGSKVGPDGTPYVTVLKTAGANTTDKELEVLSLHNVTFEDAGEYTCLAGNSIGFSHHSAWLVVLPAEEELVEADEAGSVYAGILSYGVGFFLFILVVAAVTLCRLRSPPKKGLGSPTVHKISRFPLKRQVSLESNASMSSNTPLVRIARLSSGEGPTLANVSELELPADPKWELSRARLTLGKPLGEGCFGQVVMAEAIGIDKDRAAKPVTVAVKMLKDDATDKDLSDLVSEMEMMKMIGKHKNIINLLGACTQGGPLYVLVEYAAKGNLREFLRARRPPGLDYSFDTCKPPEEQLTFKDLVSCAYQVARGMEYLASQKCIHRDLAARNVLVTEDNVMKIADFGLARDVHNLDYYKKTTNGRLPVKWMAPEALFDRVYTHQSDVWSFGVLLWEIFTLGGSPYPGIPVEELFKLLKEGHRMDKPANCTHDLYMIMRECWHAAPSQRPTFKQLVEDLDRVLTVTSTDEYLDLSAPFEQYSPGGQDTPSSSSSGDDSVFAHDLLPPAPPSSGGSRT

| Sequence | phosphorylation enrichment |
| --- | --- |
| NTDETYCIDNK [TUBB3_Y200_E205K] | 0.783 |
| IYLGAYDRFLP [SLC22A5_Y486_V481I] | 0.94 |
| GTSLIYWILFT [G6PC3_Y214_T216I] | 1.38 |
| MHDSNSVSKGS [PDGFRA_Y849_Y849S] | 0.329 |
| KWRGQYDVAIK [BTK_Y425] | 0.546 |
| VPTSKYRGGGG [HBA1_Y141_L137P] | 0.349 |
| ADAHHYLCKEV [JAK2_Y382] | 0.554 |
| YSPCDYQPCLA [TNS1_Y798_Y796C] | 3.25 |
| LFFFSYLLKNH [PTEN_Y180_V175L_YF] | 0.671 |
| CTTIHYNYMRN [TP53_Y234_C238R] | 0.577 |
| GHLFAYNWISI [BEST1_Y227_D228N_YF] | 1.21 |
| LRRFIYRPPDQ [OTOF_Y1231_R1236Q] | 0.397 |
| KRAIGHYSATS [FAM120A_Y327_Y327H] | 0.423 |
| CTTIHYNFRCN [TP53_Y234_M237R_YF] | 0.637 |
| CATIHYNYMCN [TP53_Y234_T230A] | 0.563 |
| RNNIEYVRDIG [MUSK_Y577] | 0.58 |
| MARDISRASYY [ALK_Y1278_Y1278S] | 0.452 |

| Sequence | phosphorylation enrichment |
| --- | --- |
| HEKRAYICAHP [ACAD9_Y611_L606H] | 0.548 |
| LADKPYTFEDY [FXN_Y118] | 1.14 |
| LLASRYDSPIN [ABLIM1_Y638] | 0.636 |
| RLDPVYFVAPA [LAMC2_Y250] | 5.76 |
| IGEGTYRQVYK [CDK13_Y716_G717R] | 0.391 |
| EQLQSYQVEII [KRT33A_Y268_A270V] | 0.762 |
| FKIFLYTLNDN [FN1_Y1975_YF] | 0.717 |
| DENWFYTRAAF [RPS19_Y54_S59F] | 0.786 |
| VRFMAYTDEIF [F8_Y450_T454I] | 0.753 |
| AQPHTYEEPGR [EPHA8_Y616_E612Q] | 0.46 |
| TSPALYRLDLD [TRIL_Y352_A347T] | 0.721 |
| NTTIHYNFMCN [TP53_Y234_C229N_YF] | 0.828 |
| GTATAYLCGVK [ALPL_Y117] | 0.595 |
| QKMADYSNKLF [PDPR_Y104_YF] | 0.586 |
| HDEPTYARSSK [PEAK1_Y616] | 0.575 |
| IGRWVYPLTPE [EIF2B5_Y319_R315G] | 0.646 |
